Assay results from patent US6727407 (University of California, dated 2004).

Molecular target: T1, GST-CCA1 (Arabidopsis thaliana, UniProt P92973 1-608)
T1 construct: Immobilized on glutathione-agarose beads; also called pGEX-CCA1 product; not shown: glutathione-S-transferase (GST) of pGEX-3X (Pharmacia)
Experiment: GST pull-down of 35S-labeled in vitro translated protein, SDS-PAGE autoradiography
Procedure: CK2 subunits and GBF4 labeled with [^35S]methionine were synthesized by coupled transcription-translation with wheat germ extract (Promega TNT). For in vitro binding, 20 µl of the reactions were added to 200 µl of binding buffer [20 mM Hepes pH 7.6, 100 mM KCl, 10% glycerol, 5 mM EDTA, 0.02% NP40, 1 mM dithiothreitol (DTT), 5 mg/ml bovine serum albumin (BSA)] followed by 10 µl of glutathione-agarose beads with bound GST or GST-CCA1 and incubated at 4° C. The beads were washed with binding buffer, then with binding buffer without BSA. Bound proteins were eluted with 1X SDS-polyacrylamide gel electrophoresis (PAGE) sample buffer and resolved by 12.5% SDS-PAGE. ^35S-labeled bands were detected by autoradiography, and quantitation was performed with a PhosphorImager (Molecular Dynamics).

T1 sequence (P92973 whole entry): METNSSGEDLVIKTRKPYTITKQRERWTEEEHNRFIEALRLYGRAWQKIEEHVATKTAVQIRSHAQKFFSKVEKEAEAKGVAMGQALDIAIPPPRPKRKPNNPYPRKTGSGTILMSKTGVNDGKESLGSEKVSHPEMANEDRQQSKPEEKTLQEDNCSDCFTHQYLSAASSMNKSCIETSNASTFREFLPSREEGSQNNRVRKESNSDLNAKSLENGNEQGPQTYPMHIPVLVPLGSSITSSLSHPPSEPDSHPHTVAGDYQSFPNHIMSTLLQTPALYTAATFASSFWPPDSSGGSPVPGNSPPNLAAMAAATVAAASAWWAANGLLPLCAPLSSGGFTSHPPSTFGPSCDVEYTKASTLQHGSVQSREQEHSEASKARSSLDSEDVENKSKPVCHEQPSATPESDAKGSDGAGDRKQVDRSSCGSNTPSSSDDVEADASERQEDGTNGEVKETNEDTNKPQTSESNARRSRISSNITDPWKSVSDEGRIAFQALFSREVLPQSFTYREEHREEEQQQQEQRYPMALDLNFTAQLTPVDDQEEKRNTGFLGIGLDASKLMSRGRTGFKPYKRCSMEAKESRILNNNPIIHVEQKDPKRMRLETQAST

B1: GBF4, a bZIP transcription factor (35S-labeled, in vitro translated) (other, UniProt P42777 1-270, looked up)
chain: MASFKLMSSSNSDLSRRNSSSASSSPSIRSSHHLRPNPHADHSRISFAYGGGVNDYTFASDSKPFEMAIDVDRSIGDRNSVNNGKSVDDVWKEIVSGEQKTIMMKEEEPEDIMTLEDFLAKAEMDEGASDEIDVKIPTERLNNDGSYTFDFPMQRHSSFQMVEGSMGGGVTRGKRGRVMMEAMDKAAAQRQKRMIKNRESAARSRERKQAYQVELETLAAKLEEENEQLLKEIEESTKERYKKLMEVLIPVDEKPRPPSRPLSRSHSLEW
modifications: [35S]methionine label
notes: Negative control
- binding result: no binding
